The values below come from doi:10.1101/2020.08.09.242891 (bioRxiv, 2020).

The test deals with T1, FLAG-PKD1 (protein kinase D1) (UniProt Q15139 1-912).
T1 sequence (looked up): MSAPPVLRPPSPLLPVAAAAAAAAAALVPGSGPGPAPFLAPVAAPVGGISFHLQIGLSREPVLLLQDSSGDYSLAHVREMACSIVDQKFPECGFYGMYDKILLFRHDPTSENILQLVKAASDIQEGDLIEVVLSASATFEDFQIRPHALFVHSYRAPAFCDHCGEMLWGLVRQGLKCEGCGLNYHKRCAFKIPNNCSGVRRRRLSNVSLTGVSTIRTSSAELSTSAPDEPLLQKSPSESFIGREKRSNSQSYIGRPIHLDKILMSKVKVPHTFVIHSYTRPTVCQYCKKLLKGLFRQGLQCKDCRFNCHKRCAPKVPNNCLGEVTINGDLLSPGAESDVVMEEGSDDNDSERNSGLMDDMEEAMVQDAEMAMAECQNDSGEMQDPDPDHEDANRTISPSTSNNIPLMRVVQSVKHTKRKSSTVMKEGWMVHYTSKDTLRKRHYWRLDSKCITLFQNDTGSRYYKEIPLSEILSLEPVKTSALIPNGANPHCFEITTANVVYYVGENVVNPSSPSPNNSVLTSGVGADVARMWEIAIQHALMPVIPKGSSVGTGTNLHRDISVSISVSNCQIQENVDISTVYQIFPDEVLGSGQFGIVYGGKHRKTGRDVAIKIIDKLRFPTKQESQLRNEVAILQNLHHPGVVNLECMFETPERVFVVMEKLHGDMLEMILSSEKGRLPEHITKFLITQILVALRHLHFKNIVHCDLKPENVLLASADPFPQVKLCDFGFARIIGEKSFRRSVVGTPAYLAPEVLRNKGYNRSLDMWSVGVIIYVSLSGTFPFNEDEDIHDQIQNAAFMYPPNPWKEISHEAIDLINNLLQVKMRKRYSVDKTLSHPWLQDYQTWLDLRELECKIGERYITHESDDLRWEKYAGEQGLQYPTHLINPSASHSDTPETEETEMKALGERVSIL
The test can be described thus: pull-down.

B1: GST-CBX8 (natural protein, UniProt Q9HC52 1-389, looked up)
chain: MELSAVGERVFAAEALLKRRIRKGRMEYLVKWKGWSQKYSTWEPEENILDARLLAAFEEREREMELYGPKKRGPKPKTFLLKAQAKAKAKTYEFRSDSARGIRIPYPGRSPQDLASTSRAREGLRNMGLSPPASSTSTSSTCRAEAPRDRDRDRDRDRERDRERERERERERERERERERGTSRVDDKPSSPGDSSKKRGPKPRKELPDPSQRPLGEPSAGLGEYLKGRKLDDTPSGAGKFPAGHSVIQLARRQDSDLVQCGVTSPSSAEATGKLAVDTFPARVIKHRAAFLEAKGQGALDPNGTRVRHGSGPPSSGGGLYRDMGAQGGRPSLIARIPVARILGDPEEESWSPSLTNLEKVVVTDVTSNFLTVTIKESNTDQGFFKEKR
Regarding B1, the binding result was “binds”.
